Laboratory results as given in US11994512B2, “Single-cell genomic methods to generate ex vivo cell systems that recapitulate in vivo biology with improved fidelity” (Massachusetts Institute of Technology, priority 2018, dated 2024).

B1: Q91WU0 (protein, UniProt Q91WU0 1-561, looked up)
chain: MFLSTLFLVSLATCVICGNPSSPPVVDTAHGKVLGKHVNVEGFSQPVAVFLGIPFAKPPLGSLRFAPPQPAEPWSSVKNATTYPPMCSQDAARGQAVNDLITNRKEKIHLEFSEDCLYLNIYTPADFSKNSRLPVMVWIHGGGLKLGGASSFDGRALSAYENVVVVAIQYRLSIWGFFSTGDEHSRGNWGHLDQVAALHWVQDNIANFGGDPGSVTIFGESAGGYSVSILILSPLSKNLFHRAISESGVAFIPGMFTKDVRPITEQIAVTAGCKTTTSAVIVHCMRQKTEEELLEIMHKLNLYKLSLQGDTKNSDQFVTSVLDGVVLPKDPKEILAEKNFNTVPYIVGINKQECGWLLPTMTGFLPADVKLDKKKAIALLEQFASMTGIPEDIIPVAVEKYTKGSDDPDQIREGVLDAMGDVAFGVPSVIVSRGHRDTGAPTYMYEYQYYPSFSSPQRPKNVVGDHADDVYSVFGAPILREGASEEEINLSKMVMKFWANFARNGNPNGKGLPHWPKYDQKEGYLHIGGTTQQAQRLKEEEVTFWTQSLAKKQPQPYHNEL
modifications: full-length
B2: Q8WUR0 (protein, UniProt Q8WUR0 1-141, looked up)
chain: MPIMVDDIMRLLCSISQERKMKAAVKHSGKGAMVAGAMAFVGGLVGGPPGIAVGGTVGGLLGAWMTSGQFKPVPQILMELPPAEQRKLVNEAMAIIGNLDWTDAVQLTALVMSNQAMQQRLLAMLTTYVTKELQAEIRYED
modifications: full-length
B3: Q8VI93 (protein, UniProt Q8VI93 1-1138, looked up)
chain: MDLFHTPAGALDKLVAHNLHPAPEFTAAVRGALGSLNITLQQHRARGSQRPRVIRIAKGGAYARGTALRGGTDVELVIFLDCFQSFGDQKTCHSETLGAMRMLLESWGGHPGPGLTFEFSQSKASRILQFRLASADGEHWIDVSLVPAFDVLGQPRSGVKPTPNVYSSLLSSHCQAGEYSACFTEPRKNFVNTRPAKLKNLILLVKHWYHQVQTRAVRATLPPSYALELLTIFAWEQGCGKDSFSLAQGLRTVLALIQHSKYLCIFWTENYGFEDPAVGEFLRRQLKRPRPVILDPADPTWDVGNGTAWRWDVLAQEAESSFSQQCFKQASGVLVQPWEGPGLPRAGILDLGHPIYQGPNQALEDNKGHLAVQSKERSQKPSNSAPGFPEAATKIPAMPNPSANKTRKIRKKAAHPKTVQEAALDSISSHVRITQSTASSHMPPDRSSISTAGSRMSPDLSQIPSKDLDCFIQDHLRPSPQFQQQVKQAIDAILCCLREKSVYKVLRVSKGGSFGRGTDLRGSCDVELVIFYKTLGDFKGQKPHQAEILRDMQAQLRHWCQNPVPGLSLQFIEQKPNALQLQLASTDLSNRVDLSVLPAFDAVGPLKSGTKPQPQVYSSLLSSGCQAGEHAACFAELRRNFINTCPPKLKSLMLLVKHWYRQVVTRYKGGEAAGDAPPPAYALELLTIFAWEQGCGEQKFSLAEGLRTILRLIQQHQSLCIYWTVNYSVQDPAIRAHLLCQLRKARPLVLDPADPTWNVGQGDWKLLAQEAAALGSQVCLQSGDGTLVPPWDVTPALLHQTLAEDLDKFISEFLQPNRHFLTQVKRAVDTICSFLKENCFRNSTIKVLKVVKGGSSAKGTALQGRSDADLVVFLSCFRQFSEQGSHRAEIISEIQAHLEACQQMHSFDVKFEVSKRKNPRVLSFTLTSQTLLDQSVDFDVLPAFDALGQLRSGSRPDPRVYTDLIHSCSNAGEFSTCFTELQRDFITSRPTKLKSLIRLVKYWYQQCNKTIKGKGSLPPQHGLELLTVYAWEQGGQNPQFNMAEGFRTVLELIVQYRQLCVYWTINYSAEDKTIGDFLKMQLRKPRPVILDPADPTGNLGHNARWDLLAKEATVYASALCCVDRDGNPIKPWPVKAAV
modifications: full-length

tested on: intracellular proteome of ENR+CD and ENR organoids; assay: LC-MS/MS TMT proteomics of ENR+CD versus ENR organoids; assay type: cell-based, C57BL/6 mice; conditions: ENR+CD versus ENR organoids, sample pairs in aggregate (n=4, 2 technical replicates from two biological donors)

In order of falling “Average logFC” value:
1. B3  1.461
2. B2  −1.514
3. B1  −1.598

same assay, conditions: protein abundance ratio ENR+CD versus ENR organoids, sample pair M1-1; LC-MS/MS TMT proteomics

In order of falling “M1-1 Log2 Median Normalized” value:
1. B3  1.378
2. B2  −0.949
3. B1  −1.5

same assay, conditions: protein abundance ratio ENR+CD versus ENR organoids, sample pair M1-2; LC-MS/MS TMT proteomics

In order of rising “M1-2 Log2 Median Normalized” value:
1. B1  −1.991
2. B2  −1.798
3. B3  0.979

same assay, conditions: protein abundance ratio ENR+CD versus ENR organoids, sample pair M2-1; LC-MS/MS TMT proteomics

In order of falling “M2-1 Log2 Median Normalized” value:
1. B3  1.6325
2. B2  −1.4995
3. B1  −2.4445

same assay, conditions: protein abundance ratio ENR+CD versus ENR organoids, sample pair M2-2; LC-MS/MS TMT proteomics

In order of rising “M2-2 Log2 Median Normalized” value:
1. B2  −1.811
2. B1  −0.456
3. B3  1.853

same assay, conditions: up = enriched in ENR+CD, down = enriched in ENR; FDR<0.05 and log fold change cut-off

In the case of B1, the change is reported as “down”.
In the case of B2, the change is reported as “down”.
With B3 the change was “up”.
